The text below walks through data of patent US20230250557A1 (published 2023).

The chains are these.
B1: 1-12E (designed binder)
chain: GSHMVSGKIVVIGSSTGGPRSLDMIIPNLPKNFPAPIVVVQHGDGWYGGGAVGTKSLAQRLDSTSELTVKEAEDGEEVKPGFVYIAPGDFHLGLKAQNGKVFFFLDKSGGSYTGEWTWGVRPAVDFTLDKAAEIYKEKTIAVILTGGARYGDLRGGDGTKGAFKVKFYGGTVIAEDKETSVVFGMPKSVIEEGYADYVLPAYKIPEKLIELV
notes: CheBc scaffold clone from modified pQE-80L in E. coli, purified on cobalt resin, detected with anti-FLAG
B2: 1-1B (designed binder)
chain: GSHMVSGKIVVIGSSTGGPRSLDMIIPNLPKNFPAPIVVVQHGEGWYGGGAVGTKSLAQRLDSTSELTVKEAEDGEEVKPGFVYIAPGDFHLGLKAQNGKVFFFLDKSGRGLRGGWSWGVRPAVDFTLDKAAEIYKEKTIAVILTGGAATGSSNGGDGTKGAFKVKFYGGTVIAEDKETSVVFGMPKSVIEEGYADYVLPAYKIPEKLIELV
notes: as for B1
B3: 1-12C (designed binder)
chain: GSHMVSGKIVVIGSSTGGPRSLDMIIPNLPKNFPAPIVVVQHGWALNGRYTLGTKSLAQRLDSTSELTVKEAEDGEEVKPGFVYIAPGDFHLGLKAQNGKVFFFLDKSGARDRGREWYGVRPAVDFTLDKAAEIYKEKTIAVILTGGYWEGDYAGGDGTKGAFKVKFYGGTVIAEDKETSVVFGMPKSVIEEGYADYVLPAYKIPEKLIELV
notes: as for B1
B4: 3-8A (designed binder)
chain: GSHMVSGKIVVIGSSTGGPRSLDMIIPNLPKNFPAPIVVVQHGSWVDGSWTWGTKSLAQRLDSTSELTVKEAEDGEEVKPGFVYIAPGDFHLGLKAQNGKVFFFLDKSGWWNGGYWVTGVRPAVDFTLDKAAEIYKEKTIAVILTGGVNLGLYNGGDGTKGAFKVKFYGGTVIAEDKETSVVFGMPKSVIEEGYADYVLPAYKIPEKLIELV
notes: as for B1
B5: 4-7D (designed binder)
chain: GSHMVSGKIVVIGSSTGGPRSLDMIIPNLPKNFPAPIVVVQHGHDWSGSSGWGTKSLAQRLDSTSELTVKEAEDGEEVKPGFVYIAPGDFHLGLKAQNGKVFFFLDKSGWVSWGWTNNGVRPAVDFTLDKAAEIYKEKTIAVILTGGRYEGVLLGGDGTKGAFKVKFYGGTVIAEDKETSVVFGMPKSVIEEGYADYVLPAYKIPEKLIELV
notes: as for B1
B6: 3-7E (designed binder)
chain: GSHMVSGKIVVIGSSTGGPRSLDMIIPNLPKNFPAPIVVVQHGYYWGSWGYEGTKSLAQRLDSTSELTVKEAEDGEEVKPGFVYIAPGDFHLGLKAQNGKVFFFLDKSGRVVDGWDYDGVRPAVDFTLDKAAEIYKEKTIAVILTGGWDTGSELGGDGTKGAFKVKFYGGTVIAEDKETSVVFGMPKSVIEEGYADYVLPAYKIPEKLIELV
notes: as for B1

T1 sequence (Q9NZQ7 19-238 limits assumed): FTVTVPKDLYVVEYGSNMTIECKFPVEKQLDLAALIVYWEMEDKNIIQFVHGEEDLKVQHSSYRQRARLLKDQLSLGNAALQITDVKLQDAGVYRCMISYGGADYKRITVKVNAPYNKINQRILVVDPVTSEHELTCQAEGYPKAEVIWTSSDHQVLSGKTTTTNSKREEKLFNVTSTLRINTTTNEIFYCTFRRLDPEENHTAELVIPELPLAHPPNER

The first assay concerns the target T1, Biotinylated human PD-L1 antigen comprising a human IgG1 Fc domain (Acro Biosystems) (human, UniProt Q9NZQ7 19-238, biotinylated (site not stated)).
T1 construct: The ELISA text says only 'antigens' were coated at 1 ug/mL; also called PD-L1 target; not shown: human IgG1 Fc domain
As to the kind of experiment: ELISA, antigen coated at 1 ug/mL, purified scaffold titrated, anti-FLAG-HRP detection. As to the method: (§1) Affinity of binding of individual scaffolds of the invention was estimated by ELISA. Antigens were dissolved in PBS to 1 μg/mL and 100 μl coated onto the surface of each well of a 96 well MaxiSorp Plate (Nunc) at 4° C. overnight. The next day, the wells of the MaxiSorp plate were washed with PBST buffer (PBS containing 0.05% Tween-20) and the wells blocked with 400 μl per well of 5% (w/v) skim milk powder in PBST for 2 hours. This blocking buffer was then discarded and the wells of the plate washed with PBST. […] The diluted target binding scaffold proteins were then transferred to the antigen coated MaxiSorp plate and allowed to bind to the immobilized blocked antigens for 2 hours at room temperature with gentle shaking. Following this, the diluted target binding scaffold protein solution was discarded and the wells of the MaxiSorp plate were washed 4 times with PBST. Then, 100 μl of a 1/4000 diluted solution of anti-FLAG M2 HRP conjugated antibody (Sigma) in PBST containing 2.5% (w/v) skim milk was added to each well and allowed to bind for 1 hour. This was then discarded and the plate washed 4 times with PBST. Then 100 μl of ELISA POD Substrate TMB Kit (HYPER) detection reagent (Nacalai Tesque, Japan) was added per well and the color development reaction stopped by addition of 100 μl of 1M phosphoric acid. Absorbance of each well was read at 450 nm wavelength. The EC₅₀ of binding was calculated from four parameter logistic plots of the measured absorbance values (FIGS. 17A-17B).
With B1, the EC50 (as a rule, the concentration giving half of the maximal effect) turned out to be 165 nM. That is a sub-micromolar value.

Turning to B2, a half-maximal response (EC50) required 108 nM. Against the preceding molecule, the EC50 is about 1.5-fold lower.

For B3, the EC50 came to 91 nM.

In a further assay the target is T2, Biotinylated human HER2 antigen comprising a portion of the HER2 extracellular domain (Acro Biosystems) (human, UniProt P04626 23-652, biotinylated (site not stated)).
T2 construct: extracellular domain; The ELISA text says only 'antigens' were coated; also called HER2 target
The assay is described as above. As to the method:
as §1
B4 returned an EC50 of 4 nM.

B5 showed an EC50 of 65 nM.

B6 returned an EC50 of 22 nM.
